Experiment: Isoelectric point
Type: physicochemical
Settings: method not stated

B1: Halo-Endo S2-His: endoglycosidase fusion protein: Halo tag, Endo S2 and His tag, SEQ ID NO: 1 (protein)
chain: MAEIGTGFPFDPHYVEVLGERMHYVDVGPRDGTPVLFLHGNPTSSYVWRNIIPHVAPTHRCIAPDLIGMGKSDKPDLGYFFDDHVRFMDAFIEALGLEEVVLVIHDWGSALGFHWAKRNPERVKGIAFMEFIRPIPTWDEWPEFARETFQAFRTTDVGRKLIIDQNVFIEGTLPMGVVRPLTEVEMDHYREPFLNPVDREPLWRFPNELPIAGEPANIVALVEEYMDWLHQSPVPKLLFWGTPGVLIPPAEAARLAKSLPNCKAVDIGPGLNLLQEDNPDLIGSEIARWLSTLEISGGGGGSGGGGSMDKHLLVKRTLGCVCAATLMGAALATHHDSLNTVKAEEKTVQTGKTDQQVGAKLVQEIREGKRGPLYAGYFRTWHDRASTGIDGKQQHPENTMAEVPKEVDILFVFHDHTASDSPFWSELKDSYVHKLHQQGTALVQTIGVNELNGRTGLSKDYPDTPEGNKALAAAIVKAFVTDRGVDGLDIDIEHEFTNKRTPEEDARALNVFKEIAQLIGKNGSDKSKLLIMDTTLSVENNPIFKGIAEDLDYLLRQYYGSQGGEAEVDTINSDWNQYQNYIDASQFMIGFSFFEESASKGNLWFDVNEYDPNNPEKGKDIEGTRAKKYAEWQPSTGGLKAGIFSYAIDRDGVAHVPSTYKNRTSTNLQRHEVDNISHTDYTVSRKLKTLMTEDKRYDVIDQKDIPDPALREQIIQQVGQYKGDLERYNKTLVLTGDKIQNLKGLEKLSKLQKLELRQLSNVKEITPELLPESMKKDAELVMVGMTGLEKLNLSGLNRQTLDGIDVNSITHLTSFDISHNSLDLSEKSEDRKLLMTLMEQVSNHQKITVKNTAFENQKPKGYYPQTYDTKEGHYDVDNAEHDILTDFVFGTVTKRNTFIGDEEAFAIYKEGAVDGRQYVSKDYTYEAFRKDYKGYKVHLTASNLGETVTSKVTATTDETYLVDVSDGEKVVHHMKLNIGSGAIMMENLAKGAKVIGTSGDFEQAKKIFDGEKSDRFFTWGQTNWIAFDLGEINLAKEWRLFNAETNTEIKTDSSLNVAKGRLQILKDTTIDLEKMDIKNRKEYLSNDENWTDVAQMDDAKAIFNSKLSNVLSRYWRFCVDGGASSYYPQYTELQILGQRLSNDVANTLKDHHHHHHHHHH
modifications: Halo-Endo S2-His
Which isoelectric point does the source give for B1 here?
The isoelectric point was 5.5.

Reference: US20260108614A1, “IMMOBILIZED ENDOGLYCOSIDASE FUSION PROTEIN AND USE THEREOF” (GENEQUANTUM HEALTHCARE (SUZHOU) CO., LTD., priority 2022, published 2026)
